Experimental data published in publication PMC8881573, “Inhibition of SRP-dependent protein secretion by the bacterial alarmone (p)ppGpp” (Nature Communications, 2022).

What was measured:
[1] = target: (Bs)MifM-stalled RNC (B. subtilis | B. subtilis (endogenous in the B. subtilis 168 extract)) (UniProt Q7WY64); test: cryo-EM structure; (Bs)SRP pre-incubated with pppGpp, tenfold molar excess over MifM-stalled RNCs, 10 min at room temperature
[2] = target: (Bs)MifM-stalled RNC (B. subtilis | B. subtilis (endogenous in the B. subtilis 168 extract)) (UniProt Q7WY64); test: cryo-EM structure; (Bs)SRP pre-incubated with GMPPNP, tenfold molar excess over MifM-stalled RNCs, 10 min at room temperature

percent of the particles with stably bound SRP (% of the particles) [1]: 38
percent of the particles with stably bound SRP (% of the particles) [2]: 24
Substance: recombinant (Bs)SRP (Ffh and 6S RNA) (from UniProt P37105 1-446) (natural protein)
